± gives the standard deviation of the averaged measurements.
System: ATP
Assay: switch fluorescence ratio, 500 uM ATP over buffer (Cy3 cluster intensity, sum of 5 cycles each) (fold (ratio)); higher = stronger signal-on switching upon ATP binding; sequences stand for … in TCGTCGGCAGCGTCAGATGTGTATAAGAGACAGTTTTTTTTTTTTTTTTTTTTTTTTT…TC
Conditions: aptamer strand: ATP DNA aptamer (quencher-CACCTGGGGGAGTATTGCGGAGGAAGG + anchor), 100 nM annealed; ATP concentration: 500 uM
How it was run: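 Between each of five buffer/ATP cycles, the flow-cell was stripped with NaOH and re-annealed. Each cycle imaged Cy3-labelled switching-strand clusters, annealed to 100 nM quencher-labelled ATP aptamer on a modified Illumina MiSeq flow-cell, first in selection buffer and then after 15 min with 500 uM ATP at 22 °C. The fluorescence ratio is summed target-cycle over summed buffer-cycle Cy3 intensity per cluster, averaged per switch-domain sequence, with clusters outside 100-1000 RFU excluded.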
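Further: ATP exposure 15 min at 22 °C before imaging.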

TTTTATGC and TTTTATTAAT are within error of each other in switch fluorescence ratio: 1.01 ± 0.061 for the first, 0.978 ± 0.04 for the second.

TTTTATTACT and TTTTATTATC are within error of each other in switch fluorescence ratio: 2.27 ± 1.8 for the first, 0.9986 ± 0.0079 for the second.

First: TTTTATTCCT
Second: TTTTATTCGG
The switch fluorescence ratio of the first is higher: 1.04 ± 0.037 for the first, 0.9614 ± 0.0095 for the second.

TTTTATTTA and TTTTATTTAT are within error of each other in switch fluorescence ratio: 0.9701 ± 0.0072 for the first, 1.02 ± 0.053 for the second.

TTTTATTTCG and TTTTCAAAAA are within error of each other in switch fluorescence ratio: 1.03 ± 0.068 for the first, 1.13 ± 0.19 for the second.

Going from TTTTCAAGGT to TTTTCACCGT, the switch fluorescence ratio rises from 0.992 ± 0.019 to 1.06 ± 0.027.

TTTTCAGAGT and TTTTCAGGCG are the same in switch fluorescence ratio: 1 ± 0.022 for the first, 1 ± 0.07 for the second.

TTTTCATGGG and TTTTCATTCC are within error of each other in switch fluorescence ratio: 0.995 ± 0.013 for the first, 1.13 ± 0.15 for the second.

TTTTCATTGT and TTTTCCAAAT are the same in switch fluorescence ratio: 1.02 ± 0.036 for the first, 1.02 ± 0.024 for the second.

TTTTCCCCGT and TTTTCCGGGC are within error of each other in switch fluorescence ratio: 1.38 ± 0.56 for the first, 1.1 ± 0.014 for the second.

TTTTCCTACG and TTTTCCTGGA are within error of each other in switch fluorescence ratio: 2.38 ± 1.6 for the first, 1.03 ± 0.066 for the second.

TTTTCCTTTT and TTTTCGAGGG are within error of each other in switch fluorescence ratio: 1.04 ± 0.082 for the first, 1.01 ± 0.023 for the second.

TTTTCGATGG and TTTTCGATTG are the same in switch fluorescence ratio: 1.01 ± 0.016 for the first, 1.01 ± 0.041 for the second.

TTTTCGCTAA and TTTTCGGGAA are within error of each other in switch fluorescence ratio: 1.55 ± 0.96 for the first, 1.011 ± 0.0057 for the second.

TTTTCGGGGA and TTTTCGGGTT are within error of each other in switch fluorescence ratio: 0.978 ± 0.018 for the first, 1 ± 0.04 for the second.

TTTTCGTGGG and TTTTCTATGT are within error of each other in switch fluorescence ratio: 0.986 ± 0.027 for the first, 1 ± 0.019 for the second.

TTTTCTCCGT and TTTTCTGCCG are within error of each other in switch fluorescence ratio: 1.3 ± 0.43 for the first, 1.03 ± 0.045 for the second.

TTTTCTGGTT and TTTTCTGTG are within error of each other in switch fluorescence ratio: 0.97 ± 0.054 for the first, 0.977 ± 0.031 for the second.

TTTTCTGTTA and TTTTCTTATC are within error of each other in switch fluorescence ratio: 1.032 ± 0.0085 for the first, 1.02 ± 0.048 for the second.

Going from TTTTCTTGGT to TTTTCTTGTC, the switch fluorescence ratio rises from 1.01 ± 0.012 to 1.038 ± 0.0076.

Going from TTTTCTTGTT to TTTTCTTTAA, the switch fluorescence ratio falls from 0.9949 ± 0.0062 to 0.9798 ± 0.0051.

TTTTGAAATT and TTTTGAACCC are within error of each other in switch fluorescence ratio: 1 ± 0.046 for the first, 0.984 ± 0.08 for the second.

Compared with TTTTGAATCG, TTTTGACGCT is lower in switch fluorescence ratio: 1.008 ± 0.0091 for the first, 0.977 ± 0.012 for the second.

TTTTGACGGA and TTTTGAGCAC are within error of each other in switch fluorescence ratio: 0.994 ± 0.027 for the first, 1.16 ± 0.26 for the second.

TTTTGAGGGC and TTTTGAGGGG are the same in switch fluorescence ratio: 1.01 ± 0.059 for the first, 1.01 ± 0.042 for the second.

TTTTGATAAT and TTTTGATCTA are within error of each other in switch fluorescence ratio: 0.991 ± 0.016 for the first, 0.97 ± 0.019 for the second.

TTTTGATTCC and TTTTGATTTC are within error of each other in switch fluorescence ratio: 1.036 ± 0.009 for the first, 1.02 ± 0.039 for the second.

TTTTGATTTG and TTTTGCAGCC are within error of each other in switch fluorescence ratio: 1 ± 0.034 for the first, 0.976 ± 0.02 for the second.

TTTTGCAGGT and TTTTGCATGA are within error of each other in switch fluorescence ratio: 1.03 ± 0.026 for the first, 1 ± 0.043 for the second.

First: TTTTGCGAGG
Second: TTTTGCGCAA
The switch fluorescence ratio of the first is higher: 1.03 ± 0.014 for the first, 0.9922 ± 0.0048 for the second.

Going from TTTTGCGCTC to TTTTGCGCTG, the switch fluorescence ratio falls from 1 ± 0.027 to 0.94 ± 0.019.

TTTTGCGGGT and TTTTGCGGTC are within error of each other in switch fluorescence ratio: 0.983 ± 0.032 for the first, 1.02 ± 0.053 for the second.

Compared with TTTTGCTGAC, TTTTGCTGCG is lower in switch fluorescence ratio: 1.14 ± 0.1 for the first, 1.023 ± 0.0033 for the second.

Compared with TTTTGCTTGA, TTTTGGAATG is lower in switch fluorescence ratio: 1.07 ± 0.052 for the first, 1.011 ± 0.0027 for the second.

TTTTGGAGCC and TTTTGGAGCG are within error of each other in switch fluorescence ratio: 1.06 ± 0.046 for the first, 1.05 ± 0.052 for the second.

TTTTGGAGGT and TTTTGGATTA are within error of each other in switch fluorescence ratio: 1.01 ± 0.013 for the first, 1 ± 0.039 for the second.

TTTTGGCCCC and TTTTGGGAT are within error of each other in switch fluorescence ratio: 1.07 ± 0.084 for the first, 1.04 ± 0.15 for the second.

TTTTGGGCTG and TTTTGGGTAG are within error of each other in switch fluorescence ratio: 1 ± 0.067 for the first, 0.984 ± 0.03 for the second.

TTTTGGGTAT and TTTTGGGTGG are within error of each other in switch fluorescence ratio: 0.985 ± 0.032 for the first, 0.988 ± 0.034 for the second.

TTTTGGTAAC and TTTTGGTATT are within error of each other in switch fluorescence ratio: 1.014 ± 0.0072 for the first, 1.02 ± 0.044 for the second.

TTTTGGTCAA and TTTTGGTCCA are within error of each other in switch fluorescence ratio: 1.02 ± 0.037 for the first, 0.981 ± 0.015 for the second.

TTTTGGTCGG and TTTTGTAGTT are within error of each other in switch fluorescence ratio: 0.983 ± 0.022 for the first, 1 ± 0.043 for the second.

Sequence TTTTGTATTA has a switch fluorescence ratio of 0.99 ± 0.029.

From the supplement of paper PMC10126150
